Data taken from article PMC7755189, “Phosphorylation of seryl-tRNA synthetase by ATM/ATR is essential for hypoxia-induced angiogenesis”.

Molecular target: SerRS AA (Homo sapiens, UniProt P49591 1-514, S101A;S241A)
Experiment: EMSA; not attenuated relative to WT; EMSA: 20 mM Tris-HCl pH 8.0, 60 mM KCl, 5 mM MgCl2, 0.1 mg/mL BSA, 10 ng/uL poly(dG-dC), 1 mM DTT, 30 min, room temperature; 0.08 pmol labeled DNA; 5% native PAGE
Settings: protein: recombinant; tags: C-terminal His6; chain copies: 2; label: 5'-32P; annealed oligonucleotides

SerRS AA, sequence (P49591 whole entry S101A/S241A): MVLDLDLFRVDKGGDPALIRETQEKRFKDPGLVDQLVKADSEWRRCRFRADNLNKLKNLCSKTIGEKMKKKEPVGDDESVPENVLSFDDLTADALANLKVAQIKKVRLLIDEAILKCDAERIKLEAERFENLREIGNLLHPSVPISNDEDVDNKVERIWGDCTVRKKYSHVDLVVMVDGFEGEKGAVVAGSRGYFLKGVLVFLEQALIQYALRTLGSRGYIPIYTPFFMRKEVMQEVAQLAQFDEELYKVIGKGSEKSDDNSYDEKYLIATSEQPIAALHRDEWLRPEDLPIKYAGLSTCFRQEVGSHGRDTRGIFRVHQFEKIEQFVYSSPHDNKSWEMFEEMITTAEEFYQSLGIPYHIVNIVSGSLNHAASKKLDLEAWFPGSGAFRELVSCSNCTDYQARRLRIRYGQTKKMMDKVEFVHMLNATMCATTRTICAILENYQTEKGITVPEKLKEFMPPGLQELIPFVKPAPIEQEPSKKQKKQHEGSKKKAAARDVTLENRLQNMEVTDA

B1: VEGFA promoter SerRS binding site 27 bp (dsDNA)
DNA 1: GGCGGGGCGGAGCCATGCGCCCCCCCC
DNA 2: GGGGGGGGCGCATGGCTCCGCCCCGCC
binding result: binds
